Data from patent US20230028476A1 (EVOTEC INTERNATIONAL, published 2023).
Read-outs that look alike come from different tables or passages of the source.

What was measured:
Assay in all cases: cell-based or functional assay
human CD40 [1] = target: T1, human CD40 (human, UniProt P25942 21-277)
[2] = target: human IFN receptor on HEK-Blue IFN-α/β cells (human)
human CD40 [3] = target: T1, human CD40; remark: listed apart in the source
[4] = target: human IFN receptor on HEK-Blue IFN-λ cells (human)
human CD40 [5] = target: T1, human CD40; remark: listed apart in the source
[6] = target: human IFN receptor on HEK-Blue IFN-γ cells (human)
[7] = target: human IFN receptor on HEK-Blue IFN-γ cells (human); remark: listed apart in the source

T1 sequence (P25942 21-277): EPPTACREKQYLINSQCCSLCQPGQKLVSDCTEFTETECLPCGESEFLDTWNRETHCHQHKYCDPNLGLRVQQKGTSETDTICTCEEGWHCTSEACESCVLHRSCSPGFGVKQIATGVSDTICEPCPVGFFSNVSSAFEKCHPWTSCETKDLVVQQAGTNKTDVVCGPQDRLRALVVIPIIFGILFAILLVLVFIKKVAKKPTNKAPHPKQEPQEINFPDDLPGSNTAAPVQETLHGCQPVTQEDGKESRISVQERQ

B1: IFA108 (antibody, human IgG2, kappa)
heavy: QVQLVESGGGVVQPGKSLRLSCAASGFTFSSNGIHWVRQAPGKGLEWVAVIWSDGSNKFYADSVKGRFTISRDNSKNTLYLQMNSLRAEDTAVYYCARASGSGSYYNFFDYWGQGTLVTVSSASTKGPSVFPLAPCSRSTSESTAALGCLVKDYFPEPVTVSWNSGALTSGVHTFPAVLQSSGLYSLSSVVTVPSSNFGTQTYTCNVDHKPSNTKVDKTVERKCCVECPPCPAPPVAGPSVFLFPPKPKDTLMISRTPEVTCVVVDVSHEDPEVQFNWYVDGVEVHNAKTKPREEQFNSTFRVVSVLTVVHQDWLNGKEYKCKVSNKGLPAPIEKTISKTKGQPREPQVYTLPPSREEMTKNQVSLTCLVKGFYPSDIAVEWESNGQPENNYKTTPPMLDSDGSFFLYSKLTVDKSRWQQGNVFSCSVMHEALHNHYTQKSLSLSPGAEAAAKEAAAKASYNLLGFLQRSSNFQCQKLLWQLNGRLEYCLKDRMNFDIPEEIKQLQQFQKEDAALTIYEMLQNIFAIFRQDSSSTGWNETIVENLLANVYHQINHLKTVLEEKLEKEDFTRGKLMSSLHLKRYYGRILHYLKAKEYSHCAWTIVRVEILRNFYFINRLTGYLRN
light: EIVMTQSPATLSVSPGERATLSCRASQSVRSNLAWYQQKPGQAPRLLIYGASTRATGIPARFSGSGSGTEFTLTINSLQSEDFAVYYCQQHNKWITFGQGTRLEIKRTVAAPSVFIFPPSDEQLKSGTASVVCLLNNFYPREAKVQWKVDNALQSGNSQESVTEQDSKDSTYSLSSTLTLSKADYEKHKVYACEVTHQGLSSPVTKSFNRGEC
In the case of B1, the “CD40 EC50 (HEK-Blue CD40L reporter cells)” value (“CD40 EC50” for short) (human CD40 [1]) is reported as 37.3 ng/mL and the “IFNβ EC50 (HEK-Blue IFN-α/β reporter cells)” value [2] is reported as 1.27 ng/mL.

B2: IFA109 (antibody, human IgG2, kappa)
heavy: QVQLVESGGGVVQPGKSLRLSCAASGFTFSSNGIHWVRQAPGKGLEWVAVIWSDGSNKFYADSVKGRFTISRDNSKNTLYLQMNSLRAEDTAVYYCARASGSGSYYNFFDYWGQGTLVTVSSASTKGPSVFPLAPCSRSTSESTAALGCLVKDYFPEPVTVSWNSGALTSGVHTFPAVLQSSGLYSLSSVVTVPSSNFGTQTYTCNVDHKPSNTKVDKTVERKCCVECPPCPAPPVAGPSVFLFPPKPKDTLMISRTPEVTCVVVDVSHEDPEVQFNWYVDGVEVHNAKTKPREEQFNSTFRVVSVLTVVHQDWLNGKEYKCKVSNKGLPAPIEKTISKTKGQPREPQVYTLPPSREEMTKNQVSLTCLVKGFYPSDIAVEWESNGQPENNYKTTPPMLDSDGSFFLYSKLTVDKSRWQQGNVFSCSVMHEALHNHYTQKSLSLSPGAEAAAKEAAAKASYNLLGFLQRSSNFQSQKLLWQLNGRLEYCLKDRMNFDIPEEIKQLQQFQKEDAALTIYEMLQNIFAIFRQDSSSTGWNETIVENLLANVYHQINHLKTVLEEKLEKEDFTRGKLMSSLHLKRYYGRILHYLKAKEYSHCAWTIVRVEILRNFYFINRLTGYLRN
light: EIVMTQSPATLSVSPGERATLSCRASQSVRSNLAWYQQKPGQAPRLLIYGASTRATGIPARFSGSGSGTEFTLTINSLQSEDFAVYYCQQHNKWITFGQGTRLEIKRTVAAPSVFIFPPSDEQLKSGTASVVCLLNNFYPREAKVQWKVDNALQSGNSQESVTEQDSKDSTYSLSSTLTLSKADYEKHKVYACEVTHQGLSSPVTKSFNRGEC
B2 was tested, and the “CD40 EC50” value (human CD40 [1]) was 30 ng/mL and the “IFNβ EC50 (HEK-Blue IFN-α/β reporter cells)” value [2] was 0.45 ng/mL.

B3: IFA44 (antibody, human IgG2, kappa)
light: DIQMTQSPSSVSASVGDRVTITCRASQGIYSWLAWYQQKPGKAPNLLIYTASTLQSGVPSRFSGSGSGTDFTLTISSLQPEDFATYYCQQANIFPLTFGGGTKVEIKRTVAAPSVFIFPPSDEQLKSGTASVVCLLNNFYPREAKVQWKVDNALQSGNSQESVTEQDSKDSTYSLSSTLTLSKADYEKHKVYACEVTHQGLSSPVTKSFNRGECGGGGSGGGGSGGGGSGGGGSVPVARLHGALPDARGCHIAQFKSLSPQELQAFKRAKDALEESLLLKDCRCHSRLFPRTWDLRQLQVRERPMALEAELALTLKVLEATADTDPALVDVLDQPLHTLHHILSQFRACIQPQPTAGPRTRGRLHHWLYRLQEAPKKESPGCLEASVTFNLFRLLTRDLNCVASGDLCV
heavy: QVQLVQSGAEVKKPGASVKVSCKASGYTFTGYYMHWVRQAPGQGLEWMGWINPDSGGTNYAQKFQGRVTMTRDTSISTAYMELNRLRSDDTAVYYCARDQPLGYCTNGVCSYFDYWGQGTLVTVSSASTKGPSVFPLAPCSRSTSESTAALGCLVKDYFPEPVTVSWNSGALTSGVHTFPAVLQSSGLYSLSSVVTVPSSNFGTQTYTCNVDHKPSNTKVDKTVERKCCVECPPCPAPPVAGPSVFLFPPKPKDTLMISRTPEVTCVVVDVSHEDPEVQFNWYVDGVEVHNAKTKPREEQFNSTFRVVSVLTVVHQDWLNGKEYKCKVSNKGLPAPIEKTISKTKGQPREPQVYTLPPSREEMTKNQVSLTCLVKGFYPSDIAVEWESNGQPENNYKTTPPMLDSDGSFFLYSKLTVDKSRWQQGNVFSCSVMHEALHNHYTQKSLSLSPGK
B3 was tested, and the “CD40 EC50” value (human CD40 [3]) was 41.4 ng/mL and the “IFNλ EC50 (HEK-Blue IFNλ reporter cells)” value [4] was 0.153 ng/mL.

B4: anti-CD40 antibody 3G5 (Celldex) (antibody, human IgG2, kappa)
heavy: QVQLVESGGGVVQPGKSLRLSCAASGFTFSSNGIHWVRQAPGKGLEWVAVIWSDGSNKFYADSVKGRFTISRDNSKNTLYLQMNSLRAEDTAVYYCARASGSGSYYNFFDYWGQGTLVTVSSASTKGPSVFPLAPCSRSTSESTAALGCLVKDYFPEPVTVSWNSGALTSGVHTFPAVLQSSGLYSLSSVVTVPSSNFGTQTYTCNVDHKPSNTKVDKTVERKCCVECPPCPAPPVAGPSVFLFPPKPKDTLMISRTPEVTCVVVDVSHEDPEVQFNWYVDGVEVHNAKTKPREEQFNSTFRVVSVLTVVHQDWLNGKEYKCKVSNKGLPAPIEKTISKTKGQPREPQVYTLPPSREEMTKNQVSLTCLVKGFYPSDIAVEWESNGQPENNYKTTPPMLDSDGSFFLYSKLTVDKSRWQQGNVFSCSVMHEALHNHYTQKSLSLSPG
light: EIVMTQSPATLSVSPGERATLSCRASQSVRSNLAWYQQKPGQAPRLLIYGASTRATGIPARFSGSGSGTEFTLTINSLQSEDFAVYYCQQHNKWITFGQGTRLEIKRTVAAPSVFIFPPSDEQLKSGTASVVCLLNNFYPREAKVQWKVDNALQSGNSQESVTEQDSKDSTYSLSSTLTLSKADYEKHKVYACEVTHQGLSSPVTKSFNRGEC
For B4, the “mean EC50, CD40 activity (HEK-Blue CD40L reporter cells)” value (human CD40 [5]) was 9.3 ng/mL.

B5: IFA42 (antibody, human IgG2, kappa)
light: DIQMTQSPSSVSASVGDRVTITCRASQGIYSWLAWYQQKPGKAPNLLIYTASTLQSGVPSRFSGSGSGTDFTLTISSLQPEDFATYYCQQANIFPLTFGGGTKVEIKRTVAAPSVFIFPPSDEQLKSGTASVVCLLNNFYPREAKVQWKVDNALQSGNSQESVTEQDSKDSTYSLSSTLTLSKADYEKHKVYACEVTHQGLSSPVTKSFNRGECGGGGSGGGGSGGGGSGGGGSQDPYVKEAENLKKYFNAGHSDVADNGTLFLGILKNWKEESDRKIMQSQIVSFYFKLFKNFKDDQSIQKSVETIKEDMNVKFFNSNKKKRDDFEKLTNYSVTDLNVQRKAIHELIQVMAELSPAAKTGKRKRSQMLFRGRRASQ
heavy: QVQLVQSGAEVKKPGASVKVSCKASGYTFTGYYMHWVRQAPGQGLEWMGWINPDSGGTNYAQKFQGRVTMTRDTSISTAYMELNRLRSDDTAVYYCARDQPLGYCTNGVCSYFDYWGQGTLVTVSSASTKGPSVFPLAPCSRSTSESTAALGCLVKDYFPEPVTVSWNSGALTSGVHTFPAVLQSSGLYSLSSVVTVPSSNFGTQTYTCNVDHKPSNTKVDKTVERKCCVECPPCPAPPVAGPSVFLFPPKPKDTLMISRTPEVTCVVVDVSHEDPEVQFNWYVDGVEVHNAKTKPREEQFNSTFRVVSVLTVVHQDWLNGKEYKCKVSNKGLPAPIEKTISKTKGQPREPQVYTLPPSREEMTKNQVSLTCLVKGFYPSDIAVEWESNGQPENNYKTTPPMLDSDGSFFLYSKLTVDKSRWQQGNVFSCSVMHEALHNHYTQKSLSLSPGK
For B5, the “CD40 EC50” value (human CD40 [3]) was 65.6 ng/mL and the “IFNγ EC50 (HEK-Blue IFNγ reporter cells)” value [6] was 15.4 ng/mL.

B6: IFA43 (antibody, human IgG2, kappa)
heavy: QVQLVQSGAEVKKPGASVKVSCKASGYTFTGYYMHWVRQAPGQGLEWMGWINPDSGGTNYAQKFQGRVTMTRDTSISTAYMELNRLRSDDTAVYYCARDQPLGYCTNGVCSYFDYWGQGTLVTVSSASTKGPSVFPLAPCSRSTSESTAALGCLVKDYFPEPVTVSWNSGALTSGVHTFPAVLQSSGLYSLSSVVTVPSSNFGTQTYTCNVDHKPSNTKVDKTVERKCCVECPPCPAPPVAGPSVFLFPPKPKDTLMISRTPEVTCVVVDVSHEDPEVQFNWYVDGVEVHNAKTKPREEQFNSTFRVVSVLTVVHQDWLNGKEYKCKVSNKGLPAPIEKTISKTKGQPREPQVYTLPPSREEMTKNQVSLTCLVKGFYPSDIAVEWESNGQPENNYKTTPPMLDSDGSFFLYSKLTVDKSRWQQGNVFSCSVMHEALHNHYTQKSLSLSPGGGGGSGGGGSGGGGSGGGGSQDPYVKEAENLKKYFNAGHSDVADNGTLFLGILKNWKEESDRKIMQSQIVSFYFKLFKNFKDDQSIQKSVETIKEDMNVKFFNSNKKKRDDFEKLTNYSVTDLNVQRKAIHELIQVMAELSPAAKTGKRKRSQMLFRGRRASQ
light: DIQMTQSPSSVSASVGDRVTITCRASQGIYSWLAWYQQKPGKAPNLLIYTASTLQSGVPSRFSGSGSGTDFTLTISSLQPEDFATYYCQQANIFPLTFGGGTKVEIKRTVAAPSVFIFPPSDEQLKSGTASVVCLLNNFYPREAKVQWKVDNALQSGNSQESVTEQDSKDSTYSLSSTLTLSKADYEKHKVYACEVTHQGLSSPVTKSFNRGEC
For B6, the “IFNγ activity EC50 (HEK-Blue IFNγ reporter cells)” value [7] was < 0.01 ng/mL, the “CD40 EC50” value (human CD40 [3]) was 50.8 ng/mL and the “IFNγ EC50 (HEK-Blue IFNγ reporter cells)” value [6] was < 0.001 ng/mL.

B7: IFA45 (antibody, human IgG2, kappa)
heavy: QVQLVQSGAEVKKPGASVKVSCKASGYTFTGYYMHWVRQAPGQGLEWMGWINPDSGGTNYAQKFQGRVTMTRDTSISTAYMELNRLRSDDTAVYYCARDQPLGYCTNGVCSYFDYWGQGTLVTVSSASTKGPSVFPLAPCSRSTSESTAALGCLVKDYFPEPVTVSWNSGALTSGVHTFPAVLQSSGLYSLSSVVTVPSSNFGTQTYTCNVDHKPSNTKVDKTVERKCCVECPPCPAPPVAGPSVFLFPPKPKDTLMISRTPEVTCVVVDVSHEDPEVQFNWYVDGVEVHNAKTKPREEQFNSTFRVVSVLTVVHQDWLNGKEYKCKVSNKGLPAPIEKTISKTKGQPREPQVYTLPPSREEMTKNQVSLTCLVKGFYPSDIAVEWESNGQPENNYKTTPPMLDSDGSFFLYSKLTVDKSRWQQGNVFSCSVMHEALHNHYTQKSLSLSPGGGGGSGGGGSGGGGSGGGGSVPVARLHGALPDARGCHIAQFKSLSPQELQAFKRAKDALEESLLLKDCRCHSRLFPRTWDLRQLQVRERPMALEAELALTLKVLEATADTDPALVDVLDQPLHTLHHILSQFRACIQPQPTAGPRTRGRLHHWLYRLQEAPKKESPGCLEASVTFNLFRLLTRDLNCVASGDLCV
light: DIQMTQSPSSVSASVGDRVTITCRASQGIYSWLAWYQQKPGKAPNLLIYTASTLQSGVPSRFSGSGSGTDFTLTISSLQPEDFATYYCQQANIFPLTFGGGTKVEIKRTVAAPSVFIFPPSDEQLKSGTASVVCLLNNFYPREAKVQWKVDNALQSGNSQESVTEQDSKDSTYSLSSTLTLSKADYEKHKVYACEVTHQGLSSPVTKSFNRGEC
B7 was tested, and the “CD40 EC50” value (human CD40 [3]) was 25.8 ng/mL and the “IFNλ EC50 (HEK-Blue IFNλ reporter cells)” value [4] was < 0.001 ng/mL.

B8: agonistic anti-CD40 antibody CP870,893 (antibody, human IgG2, kappa)
heavy: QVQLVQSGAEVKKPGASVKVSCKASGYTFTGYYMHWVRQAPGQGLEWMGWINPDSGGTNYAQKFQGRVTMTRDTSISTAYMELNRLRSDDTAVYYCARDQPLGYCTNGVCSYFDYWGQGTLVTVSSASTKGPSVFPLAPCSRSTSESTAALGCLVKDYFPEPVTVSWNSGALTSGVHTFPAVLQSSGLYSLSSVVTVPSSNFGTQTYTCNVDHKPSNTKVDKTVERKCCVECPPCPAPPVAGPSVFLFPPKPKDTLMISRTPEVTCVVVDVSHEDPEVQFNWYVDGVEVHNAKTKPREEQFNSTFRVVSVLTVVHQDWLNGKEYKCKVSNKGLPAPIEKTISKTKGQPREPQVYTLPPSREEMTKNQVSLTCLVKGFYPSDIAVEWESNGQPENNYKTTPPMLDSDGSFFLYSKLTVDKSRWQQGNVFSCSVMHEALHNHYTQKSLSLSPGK
light: DIQMTQSPSSVSASVGDRVTITCRASQGIYSWLAWYQQKPGKAPNLLIYTASTLQSGVPSRFSGSGSGTDFTLTISSLQPEDFATYYCQQANIFPLTFGGGTKVEIKRTVAAPSVFIFPPSDEQLKSGTASVVCLLNNFYPREAKVQWKVDNALQSGNSQESVTEQDSKDSTYSLSSTLTLSKADYEKHKVYACEVTHQGLSSPVTKSFNRGEC
B8 was tested, and the “EC50, agonistic CD40 activity in the experiment of FIG. 3 (HEK-Blue CD40L reporter cells)” value (human CD40 [5]) was 57 ng/mL, the “EC50, potency on CD40 pathway (HEK-Blue CD40L reporter cells)” value (human CD40 [5]) was 30 to 80 ng/mL and the “mean EC50, agonistic CD40 activity (HEK-Blue CD40L reporter cells)” value (human CD40 [5]) was 48 ng/mL.
